In experiment [1] the target is T1, human CD63 (human, UniProt P08962 2-238).
T1 construct: stably transfected in NIH3T3/hCD63; The cell line is named under assay; also called hCD63
T1 sequence: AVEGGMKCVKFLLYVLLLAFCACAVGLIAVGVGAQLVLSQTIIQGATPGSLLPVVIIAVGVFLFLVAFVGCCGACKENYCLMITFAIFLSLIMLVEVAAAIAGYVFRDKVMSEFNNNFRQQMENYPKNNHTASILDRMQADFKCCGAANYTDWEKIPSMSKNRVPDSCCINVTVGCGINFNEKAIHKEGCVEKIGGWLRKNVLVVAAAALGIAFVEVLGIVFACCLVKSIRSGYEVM
The experiment can be described thus: ECL, LNCAP cells. How it is done: (§1) LNCAP cells were determined to have a lower human CD63 copy number than U87MG cells. Non-transfected NIH3T3 cells, which have no detectable expression of human CD63 by fluorescence activated cell sorting (FACS), were included as a negative control.
(§2) Briefly, cell lines were rinsed once in PBS buffer without Ca²⁺/Mg²⁺ and incubated for 10 minutes at 37° C. with Enzyme Free Cell Dissociation Solution (Millipore, Cat #S-004-C) to detach the cells. Cells were then washed once with PBS with Ca²⁺/Mg²⁺ and counted with a Cellometer™ Auto T4 cell counter (Nexcelom Bioscience, LLC). Approximately 2.0×10⁴ NIH3T3/hCD63, LNCAP, U87MG or NIH3T3 cells were seeded separately onto 96-well carbon electrode plates […]) and were then incubated for one hour at 37° C. Nonspecific binding sites were blocked with 2% BSA (w/v) in PBS with Ca²⁺/Mg²⁺ for one hour at room temperature (RT). Solutions containing anti-CD63 antibodies or isotype control antibodies at a range of concentrations (1.7 pM to 100 nM) in 0.5% BSA (w/v) in PBS with Ca²⁺/Mg²⁺, as well as control buffer alone, were then added in duplicate to the plate-bound NIH3T3/hCD63, LNCAP, U87MG or NIH3T3 cells and incubated for one hour at RT. Plates were subsequently washed to remove unbound antibodies using an AquaMax2000 plate washer with a cell washing head (MDS Analytical Technologies). […] Plates were washed and then incubated with Read Buffer (MSD, Cat #R92TD-2) according to the manufacturer's instructions. Luminescent signals were measured using a SECTOR Imager (MSD).

The target in experiment [2] is T2, recombinant human CD63 extracellular loop 2 expressed with a C-terminal human Fc tag (human).
T2 construct: also called hCD63 EC loop 2-hFc; human CD63 EC loop 2-Fc
T2 sequence (chain, as listed by the source limits assumed): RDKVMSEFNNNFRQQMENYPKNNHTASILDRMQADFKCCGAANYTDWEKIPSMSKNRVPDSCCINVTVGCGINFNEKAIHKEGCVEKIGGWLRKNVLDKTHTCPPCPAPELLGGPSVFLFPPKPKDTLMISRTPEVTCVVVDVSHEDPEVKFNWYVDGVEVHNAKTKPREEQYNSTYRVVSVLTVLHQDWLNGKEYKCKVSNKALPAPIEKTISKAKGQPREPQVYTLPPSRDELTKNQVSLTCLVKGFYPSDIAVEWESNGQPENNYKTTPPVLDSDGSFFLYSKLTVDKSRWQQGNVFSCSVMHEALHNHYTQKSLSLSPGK
The experiment can be described thus: SPR Biacore, mAb captured, 25C. How it is done: (§3) Equilibrium dissociation constants (KD) for different CD63 (EC2) loop reagents binding to purified anti-CD63 monoclonal antibodies were determined using a real-time surface plasmon resonance based Biacore T200 biosensor or Biacore 2000 biosensor. All binding studies were performed in 10 mM HEPES, 150 mM NaCl, 3 mM EDTA, and 0.05% v/v Surfactant Tween-20, pH 7.4 (HBS-ET) running buffer at 25° C. and 37° C. The Biacore CMS sensor chip surface was first derivatized by amine coupling with either a rabbit anti-mouse Fc specific polyclonal antibody (GE Healthcare, Cat #BR100838) or an anti-human Fab kit (GE Healthcare, Cat #28958325) to capture anti-CD63 monoclonal antibodies. […] The association rate (Kₐ) and dissociation rate (kd) were determined by fitting the real-time binding sensorgrams to a 1:1 binding model with mass transport limitation using Scrubber 2.0c curve-fitting software. Binding dissociation equilibrium constant (KD) and dissociative half-life (t½) were calculated from the kinetic rates as: […]
(§4) Binding kinetics parameters for human CD63 EC loop 2 protein binding to different anti-CD63 monoclonal antibodies of the invention at 25° C. and 37° C. are shown in Tables 6 through 9.
(In general: SPR reads the build-up and loss of mass on a sensor chip optically.)

Experiment [3] addresses T3, recombinant human CD63 extracellular loop 2 expressed with a C-terminal Myc-Myc-hexahistidine (human).
T3 construct: also called hCD63 EC loop 2-MMH; human CD63 EC loop 2-MMH
The experiment can be described thus: SPR Biacore, mAb captured, 25C. How it is done:
as §3, §4

Experiment [4] deals with T1, human CD63. Nature of the experiment: ECL, U87MG cells. As to the method:
as §1, §2

Experiment [5] concerns the target T2, recombinant human CD63 extracellular …. The experiment can be described thus: SPR Biacore, mAb captured, 37C. How it is done:
as §3, §4

The target in experiment [6] is T3, recombinant human CD63 extracellular …. The experiment can be described thus: SPR Biacore, mAb captured, 37C. As to the method:
as §3, §4

For experiment [7], the target named is T1, human CD63. Nature of the experiment: ECL, NIH3T3/hCD63 cells. As to the method:
as §1, §2

T3 sequence (chain, as listed by the source limits assumed): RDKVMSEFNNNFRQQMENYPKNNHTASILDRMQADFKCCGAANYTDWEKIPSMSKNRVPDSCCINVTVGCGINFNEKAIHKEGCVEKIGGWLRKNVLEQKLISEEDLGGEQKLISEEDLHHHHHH

B1: H1M12388N (antibody, V domains shown)
VH: QVQLEESGGGVVKAGGSLRLSCAASGFTFSDYYINWIRQAPGKGLEWVSYINNGGYTIYYADSVKGRFTMSRDNAKNSVYLQMNGLRAEDTAFYYCVRDPRSYYGFDYWGQGTLVTVSS
VL: DIQMTQSPSSLSASVGDRVTITCRASQSISRFLHWYQQKPGKAPKLLIYGASSLQSGVPSRFSGSGSGTDFTLTISTLQPEDFATYYCQQSYSTPPITFGQGTRLEIK
For orientation: EC50 means the concentration giving half of the maximal effect. A higher EC50 goes with lower potency in that assay. One may read the Kd as the equilibrium constant for the complex coming apart. Broadly, the koff is the rate constant with which the complex falls apart. What is called kon is the rate constant with which the complex forms. On to B1, for which, in the experiment with human CD63 [1], it took 0.25 nM to reach a half-maximal effect (EC50) and the “binding ratio at 3.7 nM vs NIH3T3” value was determined as 31 fold. Moreover, in experiment [2], the “100 nM Ag Bound (RU)” value was determined as 131 RU, the Kd was 0.238 nM, the koff stood at 0.000173 s⁻¹ and the kon is 728000 M⁻¹ s⁻¹. For the same molecule, in experiment [2], the t1/2 was 67 min. In experiment [3], the “100 nM Ag Bound (RU)” value came to 59 RU, the Kd turned out to be 0.72 nM, the koff came to 0.000587 s⁻¹ and the kon stood at 815000 M⁻¹ s⁻¹. Further, in experiment [3], the t1/2 worked out at 20 min. In the experiment with human CD63 [4], it took 0.3 nM to reach a half-maximal effect (EC50) and the “binding ratio at 3.7 nM vs NIH3T3” value worked out at 284 fold. Further, in experiment [5], the “100 nM Ag Bound (RU)” value was 158 RU, the Kd was found to be 0.863 nM, the koff is 0.000887 s⁻¹ and the kon is 1.03e+06 M⁻¹ s⁻¹. Further, in experiment [5], the t1/2 was found to be 13 min. Besides, in experiment [6], the “100 nM Ag Bound (RU)” value was found to be 60 RU, the equilibrium dissociation constant (Kd) stood at 5.02 nM, the koff amounted to 0.00327 s⁻¹ and the kon is 651000 M⁻¹ s⁻¹. Moreover, the t1/2 in experiment [6] was determined as 4 min. Also, in the experiment with human CD63 [7], the EC50 was 0.52 nM and the “binding ratio at 3.7 nM vs NIH3T3” value is 434 fold.

B2: H2M12387N (antibody, V domains shown)
VH: QVQLEESGGGVVKAGGSLRLSCAASGFTFSDYYMNWIRQAPGKGLEWVSYINNGGYTIYYADSVKGRFTMSRDNAKNSVYLQMNGLRAEDTAFYYCVRDPRSYYGFDYWGQGTLVIVSS
VL: DIQMTQSPSSLSASVGDRVTITCRASQSISRFLHWYQQKPGKAPKLLIYGASSLQSGVPSRFSGSGSGTDFTLTISSLQPEDFATYYCQQSYSTPPITFGQGTRLEIK
notes: also called H2aM12387N
Take B2: in the experiment with human CD63 [1], a half-maximal response (EC50) required 0.15 nM and the “binding ratio at 3.7 nM vs NIH3T3” value amounted to 18 fold. Also, in experiment [2], the “100 nM Ag Bound (RU)” value was 164 RU, the Kd is 0.129 nM, the koff was 0.00011 s⁻¹ and the on-rate constant (kon) came to 854000 M⁻¹ s⁻¹. Further, the t1/2 in experiment [2] amounted to 105 min. In experiment [3], the “100 nM Ag Bound (RU)” value came to 74 RU, the Kd is 0.994 nM, the dissociation rate constant (koff) worked out at 0.00054 s⁻¹ and the kon is 543000 M⁻¹ s⁻¹. In addition, the t1/2 in experiment [3] came to 21 min. In addition, in the experiment with human CD63 [4], the EC50 came out at 0.29 nM and the “binding ratio at 3.7 nM vs NIH3T3” value worked out at 172 fold. In addition, in experiment [5], the “100 nM Ag Bound (RU)” value was determined as 196 RU, the equilibrium dissociation constant (Kd) came out at 0.596 nM, the dissociation rate constant (koff) was determined as 0.000657 s⁻¹ and the kon was found to be 1.1e+06 M⁻¹ s⁻¹. Moreover, in experiment [5], the t1/2 worked out at 18 min. Besides, in experiment [6], the “100 nM Ag Bound (RU)” value stood at 77 RU, the Kd is 5.21 nM, the koff stood at 0.00354 s⁻¹ and the kon came to 679000 M⁻¹ s⁻¹. In experiment [6], the t1/2 worked out at 3 min. Besides, in the experiment with human CD63 [7], the EC50 was found to be 0.39 nM and the “binding ratio at 3.7 nM vs NIH3T3” value came out at 228 fold.

B3: H1M12386N (antibody, V domains shown)
VH: QVQLEESGGGVVKAGGSLRLSCVASGFTFSDYYINWIRQAPGKGLEWVSYINNGGYTIYYADSVKGRFTMSRDNAKNSVYLEMNGLRAEDTAFYYCVRDPRSYYGFDYWGQGTLVTVSS
VL: DIQMTQSPSSLSASVGDRVTITCRASQSISSYLNWNQQKPGKAPKLLIYVASSLQSGVPSRFSGSGSGTDFTLTISGLQPEDFAPYYCQQSYITPPITFGQGTRLDIK
Turning to B3, in the experiment with human CD63 [1], the concentration giving a half-maximal response (EC50) was determined as 0.29 nM and the “binding ratio at 3.7 nM vs NIH3T3” value was found to be 16 fold. For the same molecule, in experiment [2], the “100 nM Ag Bound (RU)” value turned out to be 160 RU, the Kd was determined as 0.173 nM, the koff was 0.000113 s⁻¹ and the association rate constant (kon) came out at 654000 M⁻¹ s⁻¹. In experiment [2], the t1/2 is 102 min. Further, in experiment [3], the “100 nM Ag Bound (RU)” value amounted to 65 RU, the Kd came out at 0.676 nM, the off-rate constant (koff) was 0.000365 s⁻¹ and the kon worked out at 540000 M⁻¹ s⁻¹. Also, in experiment [3], the t1/2 was found to be 32 min. Also, in the experiment with human CD63 [4], the midpoint of the response, the EC50, lay at 0.31 nM and the “binding ratio at 3.7 nM vs NIH3T3” value amounted to 129 fold. In experiment [5], the “100 nM Ag Bound (RU)” value came to 170 RU, the dissociation constant Kd was determined as 0.685 nM, the koff was determined as 0.000631 s⁻¹ and the kon came to 921000 M⁻¹ s⁻¹. For the same molecule, in experiment [5], the t1/2 worked out at 18 min. In addition, in experiment [6], the “100 nM Ag Bound (RU)” value is 65 RU, the Kd stood at 3.61 nM, the koff was 0.00235 s⁻¹ and the on-rate (kon) worked out at 650000 M⁻¹ s⁻¹. In experiment [6], the t1/2 was 5 min. Also, in the experiment with human CD63 [7], the EC50 turned out to be 0.52 nM and the “binding ratio at 3.7 nM vs NIH3T3” value amounted to 220 fold.

B4: H2M12394N (antibody, V domains shown)
VH: QVQLQESGPGLVKPSETLSLTCTVSGGSISSYYWNWIRQSPGKGLEWIGYTKKRSTNYNPSLRSRVTISEDTSKNQFSLKMSSVTAADTAVYYCAKMGWGSHAFDIWGQGTMVTVSS
VL: not shown
notes: also called H2aM12394N
Turning to B4, the EC50 stood at 0.75 nM with human CD63 [1], 1.4 nM with human CD63 [4] and 0.38 nM with human CD63 [7]. For the same molecule, the “binding ratio at 3.7 nM vs NIH3T3” value turned out to be 4 fold in the experiment with human CD63 [1], 50 fold with human CD63 [4] and 61 fold in the experiment with human CD63 [7]. Moreover, the “100 nM Ag Bound (RU)” value in experiment [2] amounted to 59 RU; in experiment [3], 27 RU; in experiment [5] it was 67 RU; in experiment [6], 19 RU. The Kd in experiment [2] is 1.76 nM; in experiment [3], 9.36 nM; in experiment [5], 1.54 nM; in experiment [6], 76.7 nM. The koff in experiment [2] turned out to be 0.000144 s⁻¹; in experiment [3], 0.000553 s⁻¹; in experiment [5], 0.000504 s⁻¹; in experiment [6], 0.00277 s⁻¹. Moreover, the kon in experiment [2] was 81800 M⁻¹ s⁻¹; in experiment [3], 59100 M⁻¹ s⁻¹; in experiment [5], 327000 M⁻¹ s⁻¹; in experiment [6], 36200 M⁻¹ s⁻¹. Moreover, the t1/2 in experiment [2] is 80 min; in experiment [3], 21 min; in experiment [5], 23 min; in experiment [6], 4 min.

B5: H1M12366N (antibody, V domains shown)
VH: QVQLQESGPGLVKPSETLSLTCTVSGGSISSYYWNWIRQSPEKGLEWIGYIYISGTTNYNPSLKSRVTISVDTFKNQFSLKLNSVTAADTAVYYCARMGLGREAFDIWGQGTMVTVSS
VL: not shown
notes: also called H3M12366N
As to B5, the EC50 with human CD63 [1] was determined as 1.8 nM; with human CD63 [4], 2 nM; with human CD63 [7], 0.83 nM. For the same molecule, the “binding ratio at 3.7 nM vs NIH3T3” value with human CD63 [1] was 7 fold; with human CD63 [4], 107 fold; with human CD63 [7], 310 fold.

(Values after patent US20210079109A1 (Regeneron, published 2021).)
